This is an account of results in paper PMC4357697, “Sequence-specific cleavage of dsRNA by Mini-III RNase”.

In one series the target is T1, BsMiniIII Δ10 (Bacillus subtilis ATCC 23857, UniProt O31418 1-143, del86-95).
T1 sequence: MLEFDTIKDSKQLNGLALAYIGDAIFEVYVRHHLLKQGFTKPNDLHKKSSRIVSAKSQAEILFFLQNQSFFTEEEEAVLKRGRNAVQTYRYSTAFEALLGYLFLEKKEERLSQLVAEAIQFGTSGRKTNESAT
The series is described as follows: filter binding; 1 mM Ca2+; affinity not affected vs wild type; Filter binding: 10 mM Tris-HCl pH 7.5, 5 mM NaCl, 1 mM CaCl2, room temperature, 1 h; 0.01 µM labeled 30 bp dsRNA, 0.1-4 µM enzyme. Conditions: protein: recombinant; tags: C-terminal His6; chain copies: 2; label: 32P end label (33P in Methods for the substrate); blunt.

Another series deals with T2, BsMiniIII Δ5 (Bacillus subtilis ATCC 23857, UniProt O31418 1-143, del91-95).
T2 sequence: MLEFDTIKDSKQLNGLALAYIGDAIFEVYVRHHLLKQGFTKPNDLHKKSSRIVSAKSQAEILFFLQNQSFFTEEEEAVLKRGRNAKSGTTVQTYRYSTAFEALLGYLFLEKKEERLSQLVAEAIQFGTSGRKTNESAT
The series is described as above. The following applies: protein: recombinant; tags: C-terminal His6; chain copies: 2; label: 32P end label (33P in Methods for the substrate); blunt.

B1: 30 bp dsRNA (30f/30r) (dsRNA)
RNA 1: CGAUACCGUCGACCUCGAGGGGGGGCCCGG
RNA 2: CCGGGCCCCCCCUCGAGGUCGACGGUAUCG
With B1, the binding result with BsMiniIII Δ10 and with BsMiniIII Δ5 was “binds” each time.
